# Test results published in the supplement of paper PMC12855868.
# B1: library; numbered along this chain (parent)
# chain: MAAAGGARLLRAASAVLGGPAGRWLHHAGSRAGSSGLLRNRGPGGSAEASRSLSVSARARSSSEDKITVHFINRDGETLTTKGKVGDSLLDVVVENNLDIDGFGACEGTLACSTCHLIFEDHIYEKLDAITDEENDMLDLAYGLTDRSRLGCQICLTKSMDNMTVRVPETVADARQSIDVGKTS
# Variants of: B1
# Experiment: scaled log2 fold change in cell abundance, elesclomol vs control (0 = silent mean, 1 = nonsense mean) (scaled log2 ratio); higher = higher viability under elesclomol (loss of FDX1 cuproptosis function)
# Settings: glucose 10 mM
# [1] = with ABC1 FDX1 KO, elesclomol 5 nM, 14 days
# [2] = with HEK293T FDX1 KO, elesclomol 40 nM, 11 days
# 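Note: variant abundance is its share of total variant reads in each endpoint sample, from next-generation sequencing of the integrated ORF PCR-amplified out of genomic DNA.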
variant,measurement,setting,value
K126H,scaled log2 fold change,[1],0.0646
same,scaled log2 fold change,[2],0.114
K126I,scaled log2 fold change,[1],-0.0257
same,scaled log2 fold change,[2],-0.476
K126L,scaled log2 fold change,[1],-0.515
same,scaled log2 fold change,[2],-0.357
K126M,scaled log2 fold change,[1],0.305
same,scaled log2 fold change,[2],0.341
K126N,scaled log2 fold change,[1],-0.104
same,scaled log2 fold change,[2],-0.19
K126P,scaled log2 fold change,[1],0.252
same,scaled log2 fold change,[2],0.147
K126Q,scaled log2 fold change,[1],-0.973
same,scaled log2 fold change,[2],-0.036
K126R,scaled log2 fold change,[1],-0.769
same,scaled log2 fold change,[2],-0.286
K126S,scaled log2 fold change,[1],-0.46
same,scaled log2 fold change,[2],-0.133
K126T,scaled log2 fold change,[1],-0.51
same,scaled log2 fold change,[2],-0.395
K126V,scaled log2 fold change,[1],0.162
same,scaled log2 fold change,[2],0.807
K126W,scaled log2 fold change,[1],0.411
same,scaled log2 fold change,[2],0.186
K126Y,scaled log2 fold change,[1],-0.263
same,scaled log2 fold change,[2],0.0548
L127A,scaled log2 fold change,[1],0.297
same,scaled log2 fold change,[2],1.31
L127D,scaled log2 fold change,[1],0.521
same,scaled log2 fold change,[2],-0.11
L127E,scaled log2 fold change,[1],0.573
same,scaled log2 fold change,[2],0.536
L127F,scaled log2 fold change,[1],-0.388
same,scaled log2 fold change,[2],-0.405
L127G,scaled log2 fold change,[1],0.701
same,scaled log2 fold change,[2],-0.0303
L127H,scaled log2 fold change,[1],0.038
same,scaled log2 fold change,[2],0.312
L127I,scaled log2 fold change,[1],0.0723
same,scaled log2 fold change,[2],0.119
L127K,scaled log2 fold change,[1],0.682
same,scaled log2 fold change,[2],0.253
L127M,scaled log2 fold change,[1],0.152
same,scaled log2 fold change,[2],0.302
L127N,scaled log2 fold change,[1],0.0507
same,scaled log2 fold change,[2],1.27
L127P,scaled log2 fold change,[1],0.814
same,scaled log2 fold change,[2],1.12
L127Q,scaled log2 fold change,[1],0.446
same,scaled log2 fold change,[2],0.00947
L127R,scaled log2 fold change,[1],0.785
same,scaled log2 fold change,[2],0.151
L127S,scaled log2 fold change,[1],0.442
same,scaled log2 fold change,[2],0.345
L127T,scaled log2 fold change,[1],0.249
same,scaled log2 fold change,[2],-0.0113
L127V,scaled log2 fold change,[1],0.0908
same,scaled log2 fold change,[2],0.603
L127W,scaled log2 fold change,[1],0.322
same,scaled log2 fold change,[2],0.0443
L127Y,scaled log2 fold change,[1],0.24
same,scaled log2 fold change,[2],-0.426
D128A,scaled log2 fold change,[1],-0.474
same,scaled log2 fold change,[2],-0.104
D128C,scaled log2 fold change,[1],0.113
same,scaled log2 fold change,[2],0.174
D128E,scaled log2 fold change,[1],0.267
same,scaled log2 fold change,[2],0.301
D128F,scaled log2 fold change,[1],-0.376
same,scaled log2 fold change,[2],0.338
D128G,scaled log2 fold change,[1],0.0426
D128H,scaled log2 fold change,[1],0.277
D128I,scaled log2 fold change,[1],-0.0983
same,scaled log2 fold change,[2],-0.34
D128K,scaled log2 fold change,[1],-0.0506
same,scaled log2 fold change,[2],-0.0961
D128L,scaled log2 fold change,[1],0.397
same,scaled log2 fold change,[2],-0.761
D128M,scaled log2 fold change,[1],-0.149
same,scaled log2 fold change,[2],-0.00382
D128N,scaled log2 fold change,[1],-0.106
same,scaled log2 fold change,[2],-0.13
D128P,scaled log2 fold change,[1],0.196
D128Q,scaled log2 fold change,[1],-0.253
D128R,scaled log2 fold change,[1],-1.26
same,scaled log2 fold change,[2],-0.293
D128S,scaled log2 fold change,[1],-0.519
same,scaled log2 fold change,[2],1.1
D128T,scaled log2 fold change,[1],-0.378
D128V,scaled log2 fold change,[1],0.419
same,scaled log2 fold change,[2],-0.465
D128W,scaled log2 fold change,[1],-0.0394
same,scaled log2 fold change,[2],-0.406
D128Y,scaled log2 fold change,[1],-0.45
same,scaled log2 fold change,[2],0.0308
A129C,scaled log2 fold change,[1],-0.31
same,scaled log2 fold change,[2],0.555
A129D,scaled log2 fold change,[1],-0.23
same,scaled log2 fold change,[2],0.439
A129E,scaled log2 fold change,[1],-0.447
same,scaled log2 fold change,[2],-0.333
A129F,scaled log2 fold change,[1],0.044
same,scaled log2 fold change,[2],-0.227
A129G,scaled log2 fold change,[1],0.16
A129H,scaled log2 fold change,[1],-0.541
A129I,scaled log2 fold change,[1],0.162
same,scaled log2 fold change,[2],-0.508
A129K,scaled log2 fold change,[1],-0.557
same,scaled log2 fold change,[2],-0.17
A129L,scaled log2 fold change,[1],0.598
same,scaled log2 fold change,[2],1.27
A129M,scaled log2 fold change,[1],-0.0116
A129P,scaled log2 fold change,[1],0.272
same,scaled log2 fold change,[2],0.0261
A129R,scaled log2 fold change,[1],0.464
same,scaled log2 fold change,[2],-0.0758
A129S,scaled log2 fold change,[1],0.0531
same,scaled log2 fold change,[2],-0.075
A129V,scaled log2 fold change,[1],0.217
same,scaled log2 fold change,[2],0.196
A129W,scaled log2 fold change,[1],-0.08
same,scaled log2 fold change,[2],1.07
A129Y,scaled log2 fold change,[1],-0.538
I130A,scaled log2 fold change,[1],0.429
I130C,scaled log2 fold change,[1],-0.188
same,scaled log2 fold change,[2],1.38
I130D,scaled log2 fold change,[1],0.59
same,scaled log2 fold change,[2],0.0795
I130E,scaled log2 fold change,[1],-0.051
same,scaled log2 fold change,[2],-0.419
I130F,scaled log2 fold change,[1],0.211
same,scaled log2 fold change,[2],-0.285
I130G,scaled log2 fold change,[1],-0.279
same,scaled log2 fold change,[2],-0.433
I130H,scaled log2 fold change,[1],0.0428
same,scaled log2 fold change,[2],0.239
I130K,scaled log2 fold change,[1],-0.203
same,scaled log2 fold change,[2],0.0187
I130L,scaled log2 fold change,[1],-0.083
same,scaled log2 fold change,[2],-0.116
I130M,scaled log2 fold change,[1],0.336
same,scaled log2 fold change,[2],-0.481
I130N,scaled log2 fold change,[1],-0.0924
same,scaled log2 fold change,[2],0.234
I130P,scaled log2 fold change,[1],-0.462
same,scaled log2 fold change,[2],-0.467
I130Q,scaled log2 fold change,[1],0.0588
same,scaled log2 fold change,[2],-0.458
I130R,scaled log2 fold change,[1],-0.234
same,scaled log2 fold change,[2],0.125
I130S,scaled log2 fold change,[1],0.236
same,scaled log2 fold change,[2],0.715
I130T,scaled log2 fold change,[1],-0.0905
same,scaled log2 fold change,[2],-0.0285
I130V,scaled log2 fold change,[1],0.000565
same,scaled log2 fold change,[2],-0.448
I130W,scaled log2 fold change,[1],-0.285
same,scaled log2 fold change,[2],-0.314
I130Y,scaled log2 fold change,[1],0.33
same,scaled log2 fold change,[2],0.102
T131A,scaled log2 fold change,[1],-0.777
same,scaled log2 fold change,[2],0.0649
T131C,scaled log2 fold change,[1],-0.2
same,scaled log2 fold change,[2],-0.521
T131D,scaled log2 fold change,[1],0.127
same,scaled log2 fold change,[2],-0.23
T131E,scaled log2 fold change,[1],0.357
same,scaled log2 fold change,[2],-0.395
T131F,scaled log2 fold change,[1],-1.03
same,scaled log2 fold change,[2],0.443
T131G,scaled log2 fold change,[1],0.277
T131H,scaled log2 fold change,[1],-0.186
same,scaled log2 fold change,[2],0.267
T131I,scaled log2 fold change,[1],-0.0956
same,scaled log2 fold change,[2],0.347
T131K,scaled log2 fold change,[1],-0.138
same,scaled log2 fold change,[2],2.11
T131L,scaled log2 fold change,[1],-0.29
same,scaled log2 fold change,[2],0.562
T131M,scaled log2 fold change,[1],0.154
T131N,scaled log2 fold change,[1],0.126
same,scaled log2 fold change,[2],-0.681
T131P,scaled log2 fold change,[1],0.137
same,scaled log2 fold change,[2],-0.104
T131Q,scaled log2 fold change,[1],0.134
same,scaled log2 fold change,[2],0.928
T131R,scaled log2 fold change,[1],-0.448
same,scaled log2 fold change,[2],0.487
T131S,scaled log2 fold change,[1],0.0867
T131V,scaled log2 fold change,[1],-0.238
same,scaled log2 fold change,[2],0.525
T131W,scaled log2 fold change,[1],0.374
same,scaled log2 fold change,[2],-0.135
T131Y,scaled log2 fold change,[1],0.17
same,scaled log2 fold change,[2],-0.668
D132A,scaled log2 fold change,[1],-0.35
same,scaled log2 fold change,[2],-0.0723
D132C,scaled log2 fold change,[1],-0.0894
same,scaled log2 fold change,[2],-0.0904
D132E,scaled log2 fold change,[1],0.299
same,scaled log2 fold change,[2],0.371
D132F,scaled log2 fold change,[1],-0.0218
same,scaled log2 fold change,[2],-0.336
D132G,scaled log2 fold change,[1],-0.0468
same,scaled log2 fold change,[2],0.9
D132H,scaled log2 fold change,[1],0.104
same,scaled log2 fold change,[2],-1.46
D132I,scaled log2 fold change,[1],-0.789
D132K,scaled log2 fold change,[1],-0.0835
same,scaled log2 fold change,[2],0.943
D132L,scaled log2 fold change,[1],0.217
same,scaled log2 fold change,[2],-0.447
D132M,scaled log2 fold change,[1],-0.07
same,scaled log2 fold change,[2],-0.451
D132N,scaled log2 fold change,[1],-0.0637
D132P,scaled log2 fold change,[1],-0.221
same,scaled log2 fold change,[2],-0.681
D132Q,scaled log2 fold change,[1],0.014
same,scaled log2 fold change,[2],0.0254
D132R,scaled log2 fold change,[1],-0.373
same,scaled log2 fold change,[2],-0.177
D132S,scaled log2 fold change,[1],-0.409
same,scaled log2 fold change,[2],1.12
D132T,scaled log2 fold change,[1],-0.0728
same,scaled log2 fold change,[2],-0.282
D132V,scaled log2 fold change,[1],0.152
same,scaled log2 fold change,[2],-0.737
